One assay has as its target T1, cynomolgus suPAR (cynomolgus, UniProt Q9GK78 23-303, limits assumed).
T1 construct: also called Cynomolgus suPAR isoform protein; cynomolgus uPAR
Put plainly: BLI (Octet Red 96E), antibody immobilized. The source says:
Recombinantly expressed proteins for hsuPAR isoform 1-D2D3 fragment and hsuPAR-3 isoforms were custom generated in HEK or CHO cells and purified by Genscript from the known amino-acid sequence of hsuPAR-1 and hsuPAR-3 respectively. Cynomolgus suPAR isoform protein was commercially obtained from Creative Biomart.
(In general: BLI is a label-free optical method that tracks binding on a fibre tip over time.)

In assay [1] the target is T2, human suPAR (hsuPAR) recombinant protein (human, UniProt Q03405 23-303).
T2 construct: it is written here as the same molecule; also called recombinant hsuPAR
T2 sequence (Q03405 23-303): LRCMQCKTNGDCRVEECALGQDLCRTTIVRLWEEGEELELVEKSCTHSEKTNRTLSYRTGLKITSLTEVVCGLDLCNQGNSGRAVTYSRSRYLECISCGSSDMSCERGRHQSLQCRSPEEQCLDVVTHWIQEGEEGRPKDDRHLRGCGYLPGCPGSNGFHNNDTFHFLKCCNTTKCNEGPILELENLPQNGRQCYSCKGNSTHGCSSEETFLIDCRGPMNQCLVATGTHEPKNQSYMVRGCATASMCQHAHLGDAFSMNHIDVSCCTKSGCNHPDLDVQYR
The assay can be described thus: BLI (Octet Red96E), WAb0014 immobilized on AHC sensor, hsuPAR as analyte. Here is the method:
(§1) Analyte global association (kₐ) and disassociation […] rates were calculated using in-built functions to determine binding affinity (KD)

Assay [2] concerns the target T3, mouse cell surface uPAR (muPAR) (mouse, UniProt P35456 24-298).
T3 construct: whole, on cells; also called mouse uPAR
T3 sequence (looked up): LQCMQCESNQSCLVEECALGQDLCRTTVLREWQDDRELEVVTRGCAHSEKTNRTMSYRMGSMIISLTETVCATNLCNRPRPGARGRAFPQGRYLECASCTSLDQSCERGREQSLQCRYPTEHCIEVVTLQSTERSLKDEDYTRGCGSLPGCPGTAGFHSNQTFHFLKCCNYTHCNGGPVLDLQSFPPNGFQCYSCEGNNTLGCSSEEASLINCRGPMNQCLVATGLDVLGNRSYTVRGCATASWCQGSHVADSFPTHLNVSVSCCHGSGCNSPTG
Put plainly: flow cytometry on undifferentiated mouse podocytes, FITC secondary antibody. Here is the method:
Gene expression of mouse uPAR in undifferentiated mouse podocyte cells was undertaken using commercial gene specific qPCR probes for mouse and human uPAR and normalized to 18S housekeeping gene expression using manufacturers RT-qPCR protocol (Thermofisher). Separately, mouse podocytes were incubated with 100 μg/mL concentration of anti-hsuPAR and Proteintech positive control anti-mouse uPAR antibodies at 4° C. for 1 hr. After 2 cycles of wash to remove any unbound antibody, cells were incubated with 10 μg/mL of a goat-anti-human-FITC or goat-anti-mouse-FITC or goat-anti-rabbit-FITC conjugated secondary antibody for 1 hr at 4° C. After washing any unbound secondary antibody, cell suspensions for each sample was gated for single cells and population mean fluorescence intensity was recorded and analyzed on a Luminex Flowsight flow cytometer. Mean fluorescence intensity for test samples was plotted in GraphPad Prism software and compared to positive control sample data.
In general terms: Flow cytometry measures light scatter and fluorescence of single cells or particles in a stream.

Assay [3] addresses T2, human suPAR (hsuPAR) recombinant protein. The assay can be described thus: BLI (Octet Red96E), hsuPAR immobilized on streptavidin sensor, WAb0014 as analyte. How it is done:
as §1

Assay [4] concerns the target T4, cell surface human uPAR (huPAR) (human, UniProt Q03405 23-305).
T4 construct: whole, on cells; also called cell surface huPAR; cell surface uPAR
The assay can be described thus: flow cytometry on human podocytes, FITC secondary antibody, MFI against concentration. Here is the method: After 2 cycles of wash to remove any unbound antibody, cells were incubated with 10 μg/mL of a goat-anti-human-FITC conjugated secondary antibody for 1 hr at 4° C.

Assay [5] has as its target T5, human neonatal FcRn receptor (hFcRn), biotinylated (human, UniProt P55899 24-297, biotinylated (site not stated)).
T5 construct: also called FcRn receptors; neonatal FcRn receptors
The assay can be described thus: BLI (Octet Red96E), biotinylated hFcRn on SA sensor, WAb0014 as analyte, acidic conditions (pH 6). Here is the method:
Biotinylated hFcRn protein was sourced from Acro Biosystems and immobilized on a SA biosensor. […] Binding affinity (KD, nM) was calculated from the response rate constants as described above.

The target of assay [6] is T6, Fc-gammaR1 receptor recombinant protein, biotinylated (Homo sapiens (Human), UniProt P12314 16-292, Biotinylated for capture on the sensor; the site of biotin is not stated in the passages seen.).
T6 construct: also called Fc-gammaR1 isoform
T6 sequence (P12314 16-292 limits assumed, form in doubt): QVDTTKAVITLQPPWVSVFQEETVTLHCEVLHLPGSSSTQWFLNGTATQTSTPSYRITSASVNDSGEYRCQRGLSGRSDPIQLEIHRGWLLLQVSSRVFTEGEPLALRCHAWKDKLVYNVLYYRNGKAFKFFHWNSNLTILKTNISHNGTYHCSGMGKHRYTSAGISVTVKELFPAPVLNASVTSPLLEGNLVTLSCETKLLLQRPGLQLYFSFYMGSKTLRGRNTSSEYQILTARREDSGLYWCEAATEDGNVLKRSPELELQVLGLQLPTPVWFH
Put plainly: BLI (Octet Red96E), biotinylated Fc-gammaR1 on streptavidin sensor, antibody as analyte. How it is done:
Antibody induced immune response is known to be mediated by interaction with Fc-gamma receptors. Immunologic response potential of WAL0921-ΔK was assessed biophysically on an Octet Red96E platform by measuring the binding affinity to Fc-gammaR1, high affinity Fc-gammaR2a and high affinity Fc-gammaR3a receptor recombinant proteins.
Biotinylated Fc-gamma proteins were procured from Acro Biosystems and immobilized on a streptavidin biosensor. Increasing concentrations of analyte WAL0921-ΔK were then applied, and responses measured. Binding affinity (KD, nM) was calculated from the response rate constants as described above.

Where only a bound is given, the exact number is not on record here.

T5 sequence (P55899 24-297 limits assumed, form in doubt): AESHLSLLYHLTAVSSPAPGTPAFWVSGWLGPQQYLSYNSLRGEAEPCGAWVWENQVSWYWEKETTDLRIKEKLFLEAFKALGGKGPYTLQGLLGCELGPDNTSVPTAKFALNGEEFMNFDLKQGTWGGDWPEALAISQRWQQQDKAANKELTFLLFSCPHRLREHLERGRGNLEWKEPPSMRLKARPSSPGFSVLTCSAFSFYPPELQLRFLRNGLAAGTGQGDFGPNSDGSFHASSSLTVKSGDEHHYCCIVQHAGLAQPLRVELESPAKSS
T4 sequence (Q03405 23-305): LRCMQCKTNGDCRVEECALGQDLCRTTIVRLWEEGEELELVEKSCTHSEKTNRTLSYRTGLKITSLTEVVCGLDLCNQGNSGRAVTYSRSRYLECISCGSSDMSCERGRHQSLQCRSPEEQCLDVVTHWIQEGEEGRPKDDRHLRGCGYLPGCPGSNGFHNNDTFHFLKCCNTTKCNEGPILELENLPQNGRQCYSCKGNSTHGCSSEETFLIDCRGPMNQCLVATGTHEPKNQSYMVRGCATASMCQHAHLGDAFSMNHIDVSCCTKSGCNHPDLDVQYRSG
T1 sequence (Q9GK78 23-303 limits assumed): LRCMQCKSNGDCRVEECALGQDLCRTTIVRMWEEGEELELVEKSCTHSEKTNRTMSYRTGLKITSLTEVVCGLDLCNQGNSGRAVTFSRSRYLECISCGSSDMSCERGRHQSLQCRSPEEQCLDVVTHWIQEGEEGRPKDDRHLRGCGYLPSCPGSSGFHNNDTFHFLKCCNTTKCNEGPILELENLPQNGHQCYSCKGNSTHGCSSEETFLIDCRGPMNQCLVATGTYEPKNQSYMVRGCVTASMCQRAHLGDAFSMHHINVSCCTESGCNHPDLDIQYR

B1: WAb0014 (antibody, human IgG1)
heavy: not shown
light: DIQMTQSPSSLSASVGDRVTITCSARQSVSYMYWYQQKPGKAPKLLIYRTSNLASGVPSRFSGSGSGTDFTLTISSLQPEDFATYYCQQYHSYPPTFGGGTKVEIKRTVAAPSVFIFPPSDEQLKSGTASVVCLLNNFYPREAKVQWKVDNALQSGNSQESVTEQDSKDSTYSLSSTLTLSKADYEKHKVYACEVTHQGLSSPVTKSFNRGEC
notes: human kappa; also called initial anti-suPAR antibody; original candidate; copies: 2 + 2
The term Kd denotes the equilibrium constant for the complex coming apart. In the case of B1, the Kd with cynomolgus suPAR is 10.5 nM; in assay [1], 0.69 to 2 nM; in assay [3], less than 0.1 nM; in assay [4], 1 to 3 nM; in assay [5] it was 0.025 nM. The binding result in assay [2] was “no binding (tested: 100 µg/mL)”.

B2: WAL0921-ΔK (antibody)
heavy: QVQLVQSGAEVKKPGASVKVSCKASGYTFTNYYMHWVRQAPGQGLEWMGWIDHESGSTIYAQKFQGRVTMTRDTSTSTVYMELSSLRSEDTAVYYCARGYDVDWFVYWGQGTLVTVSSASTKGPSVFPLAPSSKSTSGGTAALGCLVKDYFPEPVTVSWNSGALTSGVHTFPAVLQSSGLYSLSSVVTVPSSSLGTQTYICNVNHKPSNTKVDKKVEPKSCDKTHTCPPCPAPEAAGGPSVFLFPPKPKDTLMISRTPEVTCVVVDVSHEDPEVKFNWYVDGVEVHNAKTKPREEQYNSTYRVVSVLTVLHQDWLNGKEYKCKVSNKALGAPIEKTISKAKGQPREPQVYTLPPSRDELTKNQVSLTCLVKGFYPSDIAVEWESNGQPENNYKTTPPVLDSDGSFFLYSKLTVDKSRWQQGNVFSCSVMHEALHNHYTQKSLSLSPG
light: DIQMTQSPSSLSASVGDRVTITCSARQSVSYMYWYQQKPGKAPKLLIYRTSNLASGVPSRFSGSGSGTDFTLTISSLQPEDFATYYCQQYHSYPPTFGGGTKVEIKRTVAAPSVFIFPPSDEQLKSGTASVVCLLNNFYPREAKVQWKVDNALQSGNSQESVTEQDSKDSTYSLSSTLTLSKADYEKHKVYACEVTHQGLSSPVTKSFNRGEC
notes: Same as WAL0921 but without the C-terminal lysine of the heavy chain (K448 of the whole heavy chain); also called WAL0921 without K448
Regarding B2, in assay [6], the Kd was 1750 nM.

For the origin of these results see patent US20250215104A1 (WALDEN BIOSCIENCES, published 2025).
